Data taken from publication PMC6043778, “Purification and Initial Characterization of 3-Hydroxybenzoate 6-Hydroxylase From a Halophilic Martelella Strain AD-3” (Frontiers in Microbiology, 2018).
Substitutions are numbered along the chain they refer to. In names and notes the source's numbering stands.

T1: 3HB6H from strain AD-3 (3-hydroxybenzoate 6-hydroxylase; AZF01_02545) (Martelella sp. AD-3, UniProt Z9T156WZO1)
T1 construct: full-length, N-terminal His6 tag (pET28a, EcoRI/HindIII), E. coli BL21(DE3), Ni-NTA; about 46 kDa by SDS-PAGE, 90 kDa by Native-PAGE (probable dimer); FAD-containing
T1 sequence (Z9T156WZO1 1-403): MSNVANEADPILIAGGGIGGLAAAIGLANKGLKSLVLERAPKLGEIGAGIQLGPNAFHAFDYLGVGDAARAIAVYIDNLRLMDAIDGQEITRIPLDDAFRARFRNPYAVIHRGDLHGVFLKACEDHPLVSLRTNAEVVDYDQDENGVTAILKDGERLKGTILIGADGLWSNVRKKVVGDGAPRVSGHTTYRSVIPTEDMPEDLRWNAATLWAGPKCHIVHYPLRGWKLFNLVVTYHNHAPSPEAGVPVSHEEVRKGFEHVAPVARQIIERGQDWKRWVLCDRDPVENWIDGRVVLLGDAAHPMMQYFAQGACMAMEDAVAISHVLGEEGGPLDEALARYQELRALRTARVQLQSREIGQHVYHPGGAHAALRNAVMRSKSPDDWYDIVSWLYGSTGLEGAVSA

B1: 3HB6H from strain AD-3 (3-hydroxybenzoate 6-hydroxylase; AZF01_02545) (Martelella sp. AD-3) (protein)
chain: T1 sequence (Z9T156WZO1 1-403)
notes: full-length, N-terminal His6 tag (pET28a, EcoRI/HindIII), E. coli BL21(DE3), Ni-NTA; about 46 kDa by SDS-PAGE, 90 kDa by Native-PAGE (probable dimer); FAD-containing
B2: 3HB6H from strain AD-3 (3-hydroxybenzoate 6-hydroxylase; AZF01_02545) (Martelella sp. AD-3; Q305P) (protein)
chain: T1 sequence (Z9T156WZO1 1-403) with Q305P
notes: as for B1
B3: 3HB6H from strain AD-3 (3-hydroxybenzoate 6-hydroxylase; AZF01_02545) (Martelella sp. AD-3; A308G) (protein)
chain: T1 sequence (Z9T156WZO1 1-403) with A308G
notes: as for B1
B4: 3HB6H from strain AD-3 (3-hydroxybenzoate 6-hydroxylase; AZF01_02545) (Martelella sp. AD-3; Y306H) (protein)
chain: T1 sequence (Z9T156WZO1 1-403) with Y306H
notes: as for B1
B5: 3HB6H from strain AD-3 (3-hydroxybenzoate 6-hydroxylase; AZF01_02545) (Martelella sp. AD-3; Y221F) (protein)
chain: T1 sequence (Z9T156WZO1 1-403) with Y221F
notes: as for B1

substrate: O=C(O)c1cccc(O)c1; assay: purified protein; format: biochemical, Martelella sp. AD-3; details: 400 μM NADH, 50 mM potassium phosphate pH 8.0, 30°C

| Molecule | Km [µM] | kcat [s⁻¹] | kcat/Km [M⁻¹ s⁻¹] |
| --- | --- | --- | --- |
| B1 | 72.6 ± 10.1 | 5.7 ± 0.2 | 80000 |
| B2 | 91.3 ± 13.5 | 1.6 ± 0.1 | 20000 |
| B3 | 38.0 ± 10.1 | 2.3 ± 0.1 | 60000 |
| B4 | 46.3 ± 6.9 | 1.5 ± 0.1 | 30000 |
| B5 | 164.2 ± 14.0 | 1.7 ± 0.1 | 10000 |

substrate: NC(=O)C1=CN([C@@H]2O[C@H](COP(=O)(O)OP(=O)(O)OC[C@H]3O[C@@H](n4cnc5c(N)ncnc54)[C@H](O)[C@@H]3O)[C@@H](O)[C@H]2O)C=CC1; assay: purified protein; format: biochemical, Martelella sp. AD-3; details: 400 μM 3-hydroxybenzoate, 50 mM potassium phosphate pH 8.0, 30°C

| Molecule | Km [µM] | kcat [s⁻¹] | kcat/Km [M⁻¹ s⁻¹] |
| --- | --- | --- | --- |
| B1 | 104.1 ± 18.2 | 7.8 ± 0.4 | 80000 |
| B2 | 95.9 ± 23.2 | 1.6 ± 0.1 | 20000 |
| B3 | 33.7 ± 6.4 | 2 ± 0.1 | 60000 |
| B4 | 103.7 ± 13.6 | 1.6 ± 0.3 | – |
| B5 | 86.7 ± 10.8 | 1 ± 0.1 | 10000 |

target: T1, 3HB6H from strain AD-3 (3-hydroxybenzoate 6-hydroxylase; AZF01_02545); assay: NADH oxidation at […] nm, Lineweaver-Burk; format: biochemical; details: 400 μM 3-hydroxybenzoate, 50 mM potassium phosphate pH 8.0, 30°C; read-out: NADH / Km

| Molecule | Km [µM] |
| --- | --- |
| NC(=O)C1=CN([C@@H]2O[C@H](COP(=O)(O)OP(=O)(O)OC[C@H]3O[C@@H](n4cnc5c(N)ncnc54)[C@H](O)[C@@H]3O)[C@@H](O)[C@H]2O)C=CC1 [NADH] | 50 ± 9.7 |

same assay, conditions: 400 μM NADH, 50 mM potassium phosphate pH 8.0, 30°C; read-out: 3HB / Km

| Molecule | Km [µM] |
| --- | --- |
| O=C(O)c1cccc(O)c1 [3-hydroxybenzoate] | 28.6 ± 7.3 |
